IntAct's records for PubMed 25613572

B1: Chromo domain-containing protein rhino (Drosophila melanogaster (Fruit fly)), Q7JXA8 (parent)
chain: MSRNHQRPNLGLVDAPPNDHVEEYVVEKILGKRFVNGRPQVLVKWSGFPNENNTWEPLENVGNCMKLVSDFESEVFRLHRKAAAKSVGKSKSSPSSSGPLITENGPSSSKKTQQHSKSVQAKNTAGMSKMNQKKGKNIKKTAGKIKDIENYPKTQMPSTSQVSTDSTEVFDGNPSATTTNMIKSPRIQSLFSDLNLIEPTKDKDVGDTSLKTPPKSRRLIEFPQREDAPLSSKHVSPMLIRKESQPLQSSCTDDSDLGESSSSMSLPTVSSTSSEKSIKVTKSEPKTLGQIKFSSRSSDGGHAASSLGAPKEGDIGLDLSGSDSMDSEVESMRRCPRRKRKKTYPDWKFPEMTKPFGVNRGLDLDKILHCYQMNDDLFMFVTWKGCSSIDAVHINDIKEAYPLQIIKYFESLRIIVPK

Variants of: B1
Conditions: with h31_human H3C1, P68431

Row | effect of a mutation on the interaction | Variant
1 | disrupting interaction | F48A
2 | decreasing interaction strength | F34A;F76A
3 | disrupting interaction | W45A
